Measured values: patent US20220010021A1 (Sanofi, published 2022)
Positions count from the first letter of the chain named. Names and notes keep the numbering of the source.

Assays:
[1] = target: human FGFR1c/KLB receptor complex on primary human adipocytes (human, UniProt P11362 22-822; Q86Z14 1-1044); assay: cell-based or functional assay
[2] = target: cell surface receptor composed of FGFR1c and co-receptor beta-Klotho (KLB) on iLite FGF21 Assay Ready Cells (human, UniProt P11362 22-822; Q86Z14 1-1044); assay: cell-based or functional assay
[3] = target: T1, human beta-Klotho (KLB) (human, UniProt Q86Z14 53-997); assay: BLI off-rate screening (Octet HTX), antibody from supernatant on anti-hIgG Fc capture sensors, KLB 5 nmol/L as analyte
T1 construct: the BLI off-rate screen was run with human and with monkey KLB; also called human KLB; ß-Klotho
T1 sequence (looked up): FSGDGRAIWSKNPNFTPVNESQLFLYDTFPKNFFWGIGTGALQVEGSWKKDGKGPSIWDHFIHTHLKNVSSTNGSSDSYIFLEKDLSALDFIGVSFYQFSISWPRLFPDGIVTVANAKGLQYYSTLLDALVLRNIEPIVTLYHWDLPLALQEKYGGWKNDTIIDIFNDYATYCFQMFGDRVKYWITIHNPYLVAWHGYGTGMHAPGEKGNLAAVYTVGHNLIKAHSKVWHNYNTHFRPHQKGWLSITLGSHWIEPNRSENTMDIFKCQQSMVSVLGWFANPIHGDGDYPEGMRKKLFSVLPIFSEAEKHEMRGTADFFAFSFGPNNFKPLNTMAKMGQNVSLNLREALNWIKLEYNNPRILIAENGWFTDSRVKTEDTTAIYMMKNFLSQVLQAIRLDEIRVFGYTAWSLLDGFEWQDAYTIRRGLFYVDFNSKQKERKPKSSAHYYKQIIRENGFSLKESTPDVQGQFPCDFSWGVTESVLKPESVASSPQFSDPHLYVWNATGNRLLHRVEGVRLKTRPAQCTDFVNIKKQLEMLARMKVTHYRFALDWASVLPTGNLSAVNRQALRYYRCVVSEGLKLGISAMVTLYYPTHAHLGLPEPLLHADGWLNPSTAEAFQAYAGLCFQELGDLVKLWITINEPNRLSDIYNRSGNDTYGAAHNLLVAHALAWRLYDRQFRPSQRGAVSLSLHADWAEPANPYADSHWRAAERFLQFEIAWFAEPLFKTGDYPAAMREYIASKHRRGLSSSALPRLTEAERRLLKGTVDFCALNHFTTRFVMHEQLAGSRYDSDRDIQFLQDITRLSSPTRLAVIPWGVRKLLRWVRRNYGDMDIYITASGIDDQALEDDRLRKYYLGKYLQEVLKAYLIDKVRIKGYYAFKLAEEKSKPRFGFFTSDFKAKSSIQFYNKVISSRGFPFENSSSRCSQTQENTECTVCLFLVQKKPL

[4] = target: cell-surface receptor complex of human FGFR1c and beta-Klotho (KLB) on iLite FGF21 reporter cells (human, UniProt P11362 22-822; Q86Z14 1-1044); assay: cell-based or functional assay
[5] = target: T2, beta-Klotho (KLB) (Homo sapiens (Human), UniProt Q86Z14 1-996); assay: BLI (Octet) off-rate screening, mAb from supernatant on anti-hIgG Fc sensor, 5 nmol/L KLB;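 further: dissociation followed for 1800 s in D-PBS plus 0.1% BSA, antibody supernatants applied at 25 µg/mL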
T2 construct: also called β-Klotho; not shown: C-terminal His tag of the bought R&D Systems protein
T2 sequence: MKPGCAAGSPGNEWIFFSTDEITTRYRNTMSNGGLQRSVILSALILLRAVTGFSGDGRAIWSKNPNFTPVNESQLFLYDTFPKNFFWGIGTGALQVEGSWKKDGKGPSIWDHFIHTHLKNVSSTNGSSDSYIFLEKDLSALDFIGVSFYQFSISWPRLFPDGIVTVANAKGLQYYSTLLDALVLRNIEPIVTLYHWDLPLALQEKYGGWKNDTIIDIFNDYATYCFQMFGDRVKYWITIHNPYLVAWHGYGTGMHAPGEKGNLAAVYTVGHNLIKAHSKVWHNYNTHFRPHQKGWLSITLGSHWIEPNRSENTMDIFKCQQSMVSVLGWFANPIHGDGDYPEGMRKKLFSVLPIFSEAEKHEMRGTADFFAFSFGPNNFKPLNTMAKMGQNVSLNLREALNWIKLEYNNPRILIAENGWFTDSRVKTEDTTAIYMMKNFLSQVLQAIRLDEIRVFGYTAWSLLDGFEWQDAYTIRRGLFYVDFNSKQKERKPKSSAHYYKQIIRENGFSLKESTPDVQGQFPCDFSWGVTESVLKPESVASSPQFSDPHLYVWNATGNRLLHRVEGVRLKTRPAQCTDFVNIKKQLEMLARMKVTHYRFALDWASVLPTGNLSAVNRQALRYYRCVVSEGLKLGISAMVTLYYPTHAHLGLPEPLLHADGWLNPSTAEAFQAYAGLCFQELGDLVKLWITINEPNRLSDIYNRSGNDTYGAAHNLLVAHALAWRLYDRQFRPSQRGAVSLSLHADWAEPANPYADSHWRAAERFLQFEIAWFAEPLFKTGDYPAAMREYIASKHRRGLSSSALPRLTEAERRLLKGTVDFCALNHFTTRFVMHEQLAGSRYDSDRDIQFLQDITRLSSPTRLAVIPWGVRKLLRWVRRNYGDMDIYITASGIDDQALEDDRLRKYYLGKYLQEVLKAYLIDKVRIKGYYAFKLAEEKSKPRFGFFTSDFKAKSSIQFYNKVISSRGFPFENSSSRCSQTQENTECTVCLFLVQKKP

[6] = target: cell surface receptor composed of the tyrosine kinase receptor FGFR1c and co-receptor beta-Klotho (KLB) (human, UniProt P11362 22-822; Q86Z14 1-1044); assay: cell-based or functional assay
cell surface receptor composed of the tyrosine kinase receptor FGFR1c and co-receptor beta-Klotho (KLB), sequence (P11362 22-822, one chain of several): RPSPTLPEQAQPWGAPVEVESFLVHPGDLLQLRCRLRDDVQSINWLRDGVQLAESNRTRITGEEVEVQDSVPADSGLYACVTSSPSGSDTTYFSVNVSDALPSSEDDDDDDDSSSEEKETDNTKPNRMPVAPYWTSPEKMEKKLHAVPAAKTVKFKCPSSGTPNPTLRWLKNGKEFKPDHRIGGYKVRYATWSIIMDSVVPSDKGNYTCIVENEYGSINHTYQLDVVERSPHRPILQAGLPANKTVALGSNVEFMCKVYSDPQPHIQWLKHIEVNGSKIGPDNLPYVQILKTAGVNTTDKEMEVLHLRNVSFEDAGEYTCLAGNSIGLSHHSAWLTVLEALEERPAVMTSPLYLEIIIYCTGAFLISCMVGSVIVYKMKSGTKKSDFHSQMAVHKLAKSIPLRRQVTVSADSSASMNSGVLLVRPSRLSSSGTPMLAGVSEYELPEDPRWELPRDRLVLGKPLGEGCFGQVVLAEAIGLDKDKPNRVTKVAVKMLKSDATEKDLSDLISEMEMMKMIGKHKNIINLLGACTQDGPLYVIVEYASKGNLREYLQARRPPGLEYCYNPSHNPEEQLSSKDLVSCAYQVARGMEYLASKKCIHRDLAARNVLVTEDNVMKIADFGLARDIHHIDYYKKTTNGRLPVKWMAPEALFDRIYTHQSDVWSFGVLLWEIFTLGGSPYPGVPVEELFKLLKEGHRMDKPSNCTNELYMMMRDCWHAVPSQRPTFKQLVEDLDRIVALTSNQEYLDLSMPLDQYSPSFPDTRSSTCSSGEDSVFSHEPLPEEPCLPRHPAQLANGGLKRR

human FGFR1c/KLB receptor complex on primary human adipocytes, sequence (P11362 22-822, chain 1 of 2): as the sequence (P11362 22-822, one chain of several) above
human FGFR1c/KLB receptor complex on primary human adipocytes, sequence (Q86Z14 whole entry, chain 2 of 2): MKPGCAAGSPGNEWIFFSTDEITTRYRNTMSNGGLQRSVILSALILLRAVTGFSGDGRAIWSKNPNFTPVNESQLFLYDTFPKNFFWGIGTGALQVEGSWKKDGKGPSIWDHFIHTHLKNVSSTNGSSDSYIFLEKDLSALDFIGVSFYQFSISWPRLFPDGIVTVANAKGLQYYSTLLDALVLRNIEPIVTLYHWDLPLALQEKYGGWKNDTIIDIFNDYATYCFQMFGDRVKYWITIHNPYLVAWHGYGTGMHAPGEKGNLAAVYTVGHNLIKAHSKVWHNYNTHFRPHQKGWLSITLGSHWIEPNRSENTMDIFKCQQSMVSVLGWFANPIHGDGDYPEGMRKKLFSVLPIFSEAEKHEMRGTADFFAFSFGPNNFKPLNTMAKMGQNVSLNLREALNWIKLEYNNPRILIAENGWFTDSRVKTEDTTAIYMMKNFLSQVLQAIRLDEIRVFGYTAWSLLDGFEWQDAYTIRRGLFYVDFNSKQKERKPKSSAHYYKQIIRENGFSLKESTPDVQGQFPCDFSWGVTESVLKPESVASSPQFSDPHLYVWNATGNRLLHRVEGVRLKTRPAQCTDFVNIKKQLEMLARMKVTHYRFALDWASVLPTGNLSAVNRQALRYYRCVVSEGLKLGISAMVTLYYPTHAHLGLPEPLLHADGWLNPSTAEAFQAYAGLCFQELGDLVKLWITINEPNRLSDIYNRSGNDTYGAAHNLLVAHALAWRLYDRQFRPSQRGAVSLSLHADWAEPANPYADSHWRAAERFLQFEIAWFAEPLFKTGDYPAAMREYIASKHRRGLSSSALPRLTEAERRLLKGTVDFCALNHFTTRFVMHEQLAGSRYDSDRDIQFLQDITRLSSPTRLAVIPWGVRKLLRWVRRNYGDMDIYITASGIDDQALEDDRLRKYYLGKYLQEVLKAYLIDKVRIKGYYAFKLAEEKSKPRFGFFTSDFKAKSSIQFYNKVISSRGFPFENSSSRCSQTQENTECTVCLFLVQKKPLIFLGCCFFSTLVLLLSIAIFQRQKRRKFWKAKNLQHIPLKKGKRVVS
cell surface receptor composed of FGFR1c and co-receptor beta-Klotho (KLB) on iLite FGF21 Assay Ready Cells, sequence (P11362 22-822, chain 1 of 2): as the sequence (P11362 22-822, one chain of several) above
cell surface receptor composed of FGFR1c and co-receptor beta-Klotho (KLB) on iLite FGF21 Assay Ready Cells, sequence (Q86Z14 whole entry, chain 2 of 2): as the sequence (Q86Z14 whole entry, chain 2 of 2) above

B1: human FGF21 (ligand)
chain: GHPIPDSSPLLQFGGQVRQRYLYTDDAQQTEAHLEIREDGTVGGAADQSPESLLQLKALKPGVIQILGVKTSRFLCQRPDGALYGSLHFDPEACSFRELLLEDGYNVYQSEAHGLPLHLPGNKSPHRDPAPRGPARFLPLPGLPPAPPEPPGILAPQPPDVGSSDPLSMVGPSQGRSPSYAS
[1]
  In-Cell Western pERK EC50, primary human adipocytes: 0.206 nmol/L

B2: Ab0331 (antibody, human IgG4 S228P, lambda)
heavy: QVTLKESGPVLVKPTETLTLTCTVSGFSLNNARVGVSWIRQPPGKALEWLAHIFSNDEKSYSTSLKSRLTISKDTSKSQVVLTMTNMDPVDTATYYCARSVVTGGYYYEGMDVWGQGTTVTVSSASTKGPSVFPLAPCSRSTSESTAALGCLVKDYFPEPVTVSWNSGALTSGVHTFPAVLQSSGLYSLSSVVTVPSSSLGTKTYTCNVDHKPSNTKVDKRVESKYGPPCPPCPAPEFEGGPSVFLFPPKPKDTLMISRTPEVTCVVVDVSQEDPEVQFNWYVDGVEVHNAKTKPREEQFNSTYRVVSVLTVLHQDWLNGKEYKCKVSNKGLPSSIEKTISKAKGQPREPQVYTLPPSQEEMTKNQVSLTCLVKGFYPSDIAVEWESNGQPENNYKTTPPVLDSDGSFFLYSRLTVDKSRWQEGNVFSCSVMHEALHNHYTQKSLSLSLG
light: SYVLTQPPSVSVAPGQTARITCGGSNIGSESVHWYQQKPGQAPVLVVYSESDRPSGIPERFSGSNSGNTATLTISRVEAGDEADYYCQVWEGESDHVVFGGGTKLTVLGQPKANPTVTLFPPSSEELQANKATLVCLISDFYPGAVTVAWKADGSPVKAGVETTKPSKQSNNKYAASSYLSLTPEQWKSHRSYSCQVTHEGSTVEKTVAPTECS
[1]
  In-Cell Western pERK EC50, primary human adipocytes: 0.101 nmol/L

B3: Ab0428 (antibody, human IgG1, lambda)
heavy: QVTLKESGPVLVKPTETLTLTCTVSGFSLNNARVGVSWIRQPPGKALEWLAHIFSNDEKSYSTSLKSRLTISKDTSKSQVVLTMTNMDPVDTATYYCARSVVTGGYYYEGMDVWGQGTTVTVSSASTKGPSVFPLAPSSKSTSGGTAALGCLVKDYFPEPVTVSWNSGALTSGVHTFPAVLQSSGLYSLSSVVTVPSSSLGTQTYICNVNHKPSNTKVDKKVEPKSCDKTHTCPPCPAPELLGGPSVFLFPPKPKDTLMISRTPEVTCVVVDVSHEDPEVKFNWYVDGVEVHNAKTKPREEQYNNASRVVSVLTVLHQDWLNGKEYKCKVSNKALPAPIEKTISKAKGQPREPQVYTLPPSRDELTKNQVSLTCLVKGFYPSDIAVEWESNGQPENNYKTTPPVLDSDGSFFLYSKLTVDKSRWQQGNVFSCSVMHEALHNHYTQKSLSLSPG
light: B2 light
[1]
  In-Cell Western pERK EC50, primary human adipocytes: 0.072 nmol/L

B4: Ab0335 (antibody, human IgG4 S228P, lambda)
heavy: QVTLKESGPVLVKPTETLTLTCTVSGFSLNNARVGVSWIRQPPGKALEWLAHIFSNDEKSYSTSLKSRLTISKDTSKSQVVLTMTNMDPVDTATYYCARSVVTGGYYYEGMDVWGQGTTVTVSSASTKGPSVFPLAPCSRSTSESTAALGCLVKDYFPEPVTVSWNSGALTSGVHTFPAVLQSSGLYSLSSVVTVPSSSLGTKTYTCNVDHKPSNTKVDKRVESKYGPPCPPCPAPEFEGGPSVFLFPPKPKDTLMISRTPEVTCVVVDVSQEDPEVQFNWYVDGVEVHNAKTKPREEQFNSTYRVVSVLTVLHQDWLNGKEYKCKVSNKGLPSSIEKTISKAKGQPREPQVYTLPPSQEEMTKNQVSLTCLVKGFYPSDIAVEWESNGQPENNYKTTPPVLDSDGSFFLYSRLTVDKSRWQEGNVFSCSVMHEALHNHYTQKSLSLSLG
light: B2 light with E50A
[1]
  In-Cell Western pERK EC50, primary human adipocytes: 0.142 nmol/L

B5: Ab0351 (antibody, human IgG4 S228P, lambda)
heavy: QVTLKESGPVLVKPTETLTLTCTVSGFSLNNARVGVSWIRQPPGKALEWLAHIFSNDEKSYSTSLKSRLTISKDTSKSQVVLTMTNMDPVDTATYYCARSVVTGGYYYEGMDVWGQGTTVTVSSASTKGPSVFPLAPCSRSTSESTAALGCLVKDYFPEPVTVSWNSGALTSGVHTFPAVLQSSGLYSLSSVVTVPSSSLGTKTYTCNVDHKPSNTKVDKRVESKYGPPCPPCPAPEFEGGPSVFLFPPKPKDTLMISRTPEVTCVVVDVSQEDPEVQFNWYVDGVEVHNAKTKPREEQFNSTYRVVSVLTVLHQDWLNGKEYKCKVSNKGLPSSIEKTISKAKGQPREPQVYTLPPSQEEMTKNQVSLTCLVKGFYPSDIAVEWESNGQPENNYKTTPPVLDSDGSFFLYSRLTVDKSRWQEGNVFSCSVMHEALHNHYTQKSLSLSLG
light: B2 light with S49E
[1]
  In-Cell Western pERK EC50, primary human adipocytes: 0.156 nmol/L

B6: 16H7 variant with light chain substitution Q88S (antibody, V domains shown)
VH: not shown
VL: SYVLTQPPSVSVAPGQTARITCGGNNIGSESVHWYQQKPGQAPVLVVYDDSDRPSGIPERFSGSNSGNTATLTISRVEAGDEADYYCSVWDGNSDHVVFGGGTKLTVLG
[2]
  Mean E max: 104%

B7: 16H7 variant with single point mutation V98S in the light chain (antibody, V domains shown)
VH: not shown
VL: B6 VL with S88Q, V98S
notes: Tested from HEK293-F supernatant
[3]
  koff: 3.9e-05 s⁻¹
[4]
  Mean E max (%), Luciferase gene reporter assay: 107%
  Mean EC50 (nM), Luciferase gene reporter assay: 0.094 nM

B8: 16H7 variant with light chain substitution V98Q (antibody, human IgG4 S228P, lambda, V domains shown)
VH: not shown
VL: B6 VL with S88Q, V98Q
notes: IgG4 backbone was used
[5]
  koff: 3.7e-05 s⁻¹
[6]
  Mean E max, Luciferase gene reporter assay: 111%
  Mean EC50, Luciferase gene reporter assay: 0.121 nM

B9: 16H7 variant with single point mutation V98A in the light chain (antibody, V domains shown)
VH: not shown
VL: B6 VL with S88Q, V98A
notes: as for B7
[3]
  koff: 4.6e-05 s⁻¹
[4]
  Mean E max (%), Luciferase gene reporter assay: 99%
  Mean EC50 (nM), Luciferase gene reporter assay: 0.139 nM

B10: 16H7 variant with single point mutation V98T in the light chain (antibody, V domains shown)
VH: not shown
VL: B6 VL with S88Q, V98T
notes: as for B7
[3]
  koff: 3.1e-05 s⁻¹
[4]
  Mean E max (%), Luciferase gene reporter assay: 99%
  Mean EC50 (nM), Luciferase gene reporter assay: 0.088 nM

B11: 16H7 variant with light chain substitution V98M (antibody, human IgG4 S228P, lambda, V domains shown)
VH: not shown
VL: B6 VL with S88Q, V98M
notes: IgG4 backbone was used
[5]
  koff: 7.2e-05 s⁻¹
[6]
  Mean E max, Luciferase gene reporter assay: 108%
  Mean EC50, Luciferase gene reporter assay: 0.114 nM

B12: 16H7 variant with light chain substitution V98P (antibody, human IgG4 S228P, lambda, V domains shown)
VH: not shown
VL: B6 VL with S88Q, V98P
notes: IgG4 backbone was used
[5]
  koff: 7.3e-05 s⁻¹
[6]
  Mean E max, Luciferase gene reporter assay: 89%
  Mean EC50, Luciferase gene reporter assay: 0.131 nM

B13: 16H7 variant with single point mutation V98H in the light chain (antibody, V domains shown)
VH: not shown
VL: B6 VL with S88Q, V98H
notes: as for B7
[3]
  koff: 1.8e-05 s⁻¹
[4]
  Mean E max (%), Luciferase gene reporter assay: 103%
  Mean EC50 (nM), Luciferase gene reporter assay: 0.107 nM

B14: 16H7 variant with single point mutation V98Y in the light chain (antibody, V domains shown)
VH: not shown
VL: B6 VL with S88Q, V98Y
notes: as for B7
[3]
  koff: 5.9e-05 s⁻¹
[4]
  Mean E max (%), Luciferase gene reporter assay: 100%
  Mean EC50 (nM), Luciferase gene reporter assay: 0.109 nM

B15: 16H7 variant with single point mutation V98Q in the light chain (antibody, V domains shown)
VH: not shown
VL: B6 VL with S88Q, V98Q
notes: as for B7
[3]
  koff: 3.7e-05 s⁻¹
[4]
  Mean E max (%), Luciferase gene reporter assay: 111%
  Mean EC50 (nM), Luciferase gene reporter assay: 0.121 nM

B16: 16H7 variant with single point mutation V98G in the light chain (antibody, V domains shown)
VH: not shown
VL: B6 VL with S88Q, V98G
notes: as for B7
[3]
  koff: 1.1e-05 s⁻¹
[4]
  Mean E max (%), Luciferase gene reporter assay: 105%
  Mean EC50 (nM), Luciferase gene reporter assay: 0.118 nM

B17: 16H7 variant with light chain substitution V98N (antibody, human IgG4 S228P, lambda, V domains shown)
VH: not shown
VL: B6 VL with S88Q, V98N
notes: IgG4 backbone was used
[5]
  koff: 2.1e-05 s⁻¹
[6]
  Mean E max, Luciferase gene reporter assay: 112%
  Mean EC50, Luciferase gene reporter assay: 0.111 nM

B18: 16H7 variant with single point mutation V98K in the light chain (antibody, V domains shown)
VH: not shown
VL: B6 VL with S88Q, V98K
notes: as for B7
[3]
  koff: 9e-05 s⁻¹
[4]
  Mean E max (%), Luciferase gene reporter assay: 106%
  Mean EC50 (nM), Luciferase gene reporter assay: 0.111 nM

B19: 16H7 variant with single point mutation V98W in the light chain (antibody, V domains shown)
VH: not shown
VL: B6 VL with S88Q, V98W
notes: as for B7
[3]
  koff: 5.6e-05 s⁻¹
[4]
  Mean E max (%), Luciferase gene reporter assay: 99%
  Mean EC50 (nM), Luciferase gene reporter assay: 0.099 nM

B20: 16H7 variant with single point mutation V98R in the light chain (antibody, V domains shown)
VH: not shown
VL: B6 VL with S88Q, V98R
notes: as for B7
[3]
  koff: 0.00011 s⁻¹
[4]
  Mean E max (%), Luciferase gene reporter assay: 99%
  Mean EC50 (nM), Luciferase gene reporter assay: 0.099 nM

B21: 16H7 variant with light chain substitution V98I (antibody, human IgG4 S228P, lambda, V domains shown)
VH: not shown
VL: B6 VL with S88Q, V98I
notes: IgG4 backbone was used
[5]
  koff: 3.3e-05 s⁻¹
[6]
  Mean E max, Luciferase gene reporter assay: 116%
  Mean EC50, Luciferase gene reporter assay: 0.105 nM

B22: 16H7 variant with single point mutation V98L in the light chain (antibody, V domains shown)
VH: not shown
VL: B6 VL with S88Q, V98L
notes: as for B7
[3]
  koff: 0.00013 s⁻¹
[4]
  Mean E max (%), Luciferase gene reporter assay: 105%
  Mean EC50 (nM), Luciferase gene reporter assay: 0.121 nM
